In the MegaScale stability set (Tsuboyama et al. 2023):

B1: EEHEE_rd4_0647 (parent)
chain: MQVTWGNVTVTFSNPEEAKKYAEKVARKLGGQVELHNGQFRIK

Variants of: B1
Assay: folding stability dG (cDNA display proteolysis); higher = more stable
Settings: PBS, room temperature

Folding stability dG [kcal/mol] of substitutions, site by site:
A26: E 0.315 | V 1.66 | G 1.38 | K 0.937 | D 0.03 | Q 1.06 | S 1.71 | M 1.2 | C 2.08 | P -0.236 | I 1.35 | H 0.769 | R 1.38 | T 0.93 | F 1 | N 0.851 | W 1.17 | L 1.34 | Y 0.807
E23: W 2.73 | C 3.37 | K 2.29 | Q 2.62 | D 2.62 | A 2.43 | G 1.86 | I 2.71 | V 2.42 | N 2.44 | M 2.68 | P 0.119 | L 2.7 | R 2.23 | F 2.98 | T 2.37 | S 2.15 | H 2.69 | Y 3.15
K24: Y 3.25 | E 2.83 | Q 2.8 | A 3.01 | T 2.61 | M 3.16 | C 3.81 | F 3.2 | D 2.73 | H 2.89 | N 2.5 | R 2.88 | L 2.93 | V 2.59 | G 2.37 | W 3.27 | P -0.146 | S 2.73 | I 2.75
Q32: A 2.52 | S 3 | D 2.11 | G 1.77 | M 2.78 | W 3.18 | E 2.76 | H 2.89 | Y 3.33 | T 3.35 | R 2.89 | F 3.08 | N 2.4 | P 1.33 | L 2.74 | C 3.47 | V 3.29 | I 3.27 | K 2.92
E34: V 2.81 | K 1.73 | P 0.384 | R 1.78 | Q 2.25 | G 1.41 | T 2.44 | Y 2.78 | S 2.23 | H 2.17 | A 1.94 | L 2.21 | I 2.83 | W 2.2 | D 2.11 | N 1.6 | M 2.22 | F 2.6
G30: N 2.63 | R 2.41 | H 2.53 | C 3.02 | Y 1.81 | M 2.05 | V 1.45 | T 1.34 | A 1.88 | S 1.98 | P 1.04 | Q 2.12 | K 2.4 | W 1.74 | I 1.34 | L 1.85 | F 1.9 | D 1.91 | E 1.59
L35: A 2.09 | C 2.78 | D 1.84 | G 1.48 | E 2.5 | F 3.15 | I 2.83 | H 2.1
R27: N 2.37 | S 2.4 | G 2.13 | P 0.58 | I 2.52 | K 2.88 | A 2.78 | Y 2.41 | V 2.36 | F 2.45 | D 2.18 | L 2.75 | Q 2.64 | T 2.31 | M 2.59 | W 2.3 | E 2.61 | H 2.51 | C 3.21
A18: Q 0.42 | Y 0.88 | S 0.985 | T 0.656 | G 1.05 | R 0.219 | V 0.732 | K 0.212 | F 1.05 | I 0.86 | N 0.024 | D -0.206 | M 0.885 | L 1 | H 0.323 | P -0.247 | C 1.92 | E 0.034 | W 1.08
K28: H 2.9 | W 3.23 | Y 2.97 | D 2.47 | P 0.676 | M 3.09 | C 3.7 | T 2.54 | R 2.98 | G 2.01 | V 2.87 | I 3.18 | F 2.97 | L 3.15 | S 2.51 | A 3.04 | E 2.72 | Q 2.79 | N 2.29
Y21: S 0.62 | W 2.52 | V 1.47 | C 2.87 | F 3.05 | K 0.616 | A 1.3 | G 0.194 | D -0.099 | I 1.34 | R 0.486 | N 0.633 | T 0.931 | M 1.71 | H 1.36 | Q 0.996 | P -0.824 | E 0.876 | L 1.74
L29: W 2.5 | H 2.06 | A 1.76 | C 2.92 | F 2.66 | K 1.36 | E 1.33 | V 2.77 | R 1.62 | G 1.17 | D 0.761 | Q 1.58 | M 2.51 | N 1.6 | P 0.143 | S 2.02 | Y 2.63 | T 2.65 | I 2.96
E17: Y 2.58 | T 2.74 | W 2.53 | P 1.01 | S 2.73 | R 2.62 | Q 2.76 | V 2.64
K19: F 2.94 | I 2.42 | S 2.12 | Q 2.61 | M 2.66 | D 0.816 | W 2.88 | N 1.71 | Y 2.94 | E 2.21 | L 3.02 | T 1.62 | G 1.83 | P 0.106 | V 2.08 | H 2.34 | A 2.53
V33: K 0.686 | E 0.359 | G 0.276 | M 1.86 | A 1.82 | D 0.259 | Y 2.07 | W 2.13 | L 2.16 | C 1.95 | H 0.75 | Q 0.541 | F 1.85 | P 1.22 | I 2.62 | S 1.11 | R 0.477 | N 0.506 | T 1.22
G31: L 2.6 | P 0.55 | H 2.11 | R 1.8 | T 2.03 | S 2.19 | Q 1.87 | W 2.39 | N 1.06 | E 1.46 | C 2.79 | K 1.8 | V 2.27 | Y 2.04 | M 2.53 | F 2.21 | A 2.62 | I 2.01 | D 1.05
V25: D 0.13 | R 1.33 | G 0.217 | P -0.34 | W 2.69 | A 1.61 | S 0.981 | L 2.95 | N 0.417 | Q 1.87 | T 1.93 | M 2.95 | I 3.11 | E 0.927 | K 1.68 | H 1.01 | Y 1.48 | F 1.79
K20: F 2.41 | E 2.73 | A 2.98 | D 2.54 | W 2.67 | I 2.77 | V 2.71 | Q 2.72 | G 2.13 | M 2.75 | T 2.62 | P 0.849 | L 2.86 | S 2.64 | R 2.96 | Y 2.43 | H 2.57 | N 2.58
A22: D -0.372 | N 0.101 | S 1.24 | L 1.62 | K 0.426 | H 0.174 | T 0.682 | Y 0.931 | Q 0.207 | G 0.944 | P -0.509 | F 1.07 | V 1.43 | M 1.48 | C 1.62 | I 1.43 | W 1.04 | E -0.084 | R 0.493
